Binding signal, binding result and IC50 data for 14 molecules are collected here from patent US20110281938, “APTAMERS TO TISSUE FACTOR PATHWAY INHIBITOR AND THEIR USE AS BLEEDING DISORDER THERAPEUTICS” (Baxter Healthcare S.A., published 2011).

Common to all, as to settings: tags: American Diagnostica 4500PC/4900PC, E. coli expressed
Data set [1] concerns the target T1, TFPI (tissue factor pathway inhibitor, full-length) (Homo sapiens, UniProt P10646 SEQ:1-276). Kind of data set: competition; meets binding-competition criterion; CAT no. As to the method: (§1) Each molecule was evaluated for binding to tissue factor pathway inhibitor (TFPI) in a binding-competition assay. For these experiments, 10 nM human TFPI (American Diagnostica, Stamford, Conn., catalog #4500PC) was incubated with trace amounts of radiolabeled ARC17480 and 5000 nM, 1666.67 nM, 555.56 nM, 185.19 nM, 61.73 nM, 20.58 nM, 6.86 nM, 2.29 nM, 0.76 nM or 0.25 nM of unlabeled competitor aptamer. ARC17480 was included as a competitor in every experiment as a control. For each molecule, the percentage of radiolabeled ARC17480 bound at each competitor aptamer concentration was used for analysis. The percentage of radiolabeled ARC17480 bound was plotted as a function of aptamer concentration and fit to the equation y=(max/(1+x/IC₅₀))+int, where y=the percentage of radiolabeled ARC17480 bound, x=the concentration of aptamer, max=the maximum radiolabeled ARC17480 bound, and int=the y-intercept, to generate an IC₅₀ value for binding-competition. The IC₅₀ of each aptamer was compared to the IC₅₀ of ARC17480 that was evaluated in the same experiment. A substitution was considered tolerated in the binding-competition assay if the IC₅₀ of that molecule was not more than 5-fold greater than that of ARC17480 evaluated in the same experiment. Tolerated substitutions are indicated in Table 38 as meeting the assay criteria (“yes”) or not meeting the assay criteria (“no”).

The target in data set [2] is T1, TFPI (tissue factor pathway inhibitor, …). Description: competition; fails binding-competition criterion; CAT yes. Here is the method:
(§2) The substituted ARC17480 molecules were assayed for binding and function. The assays used for this evaluation were the calibrated automated thrombogram (CAT) assay, a dot-blot binding-competition assay and a FXa activity assay. The results of these assays are summarized in Table 40 and depicted in FIG. 147. A mutation was considered tolerated for activity if it met the criteria of at least two of the three assays that were carried out. Mutations that are tolerated (“yes”) and not tolerated (“no”) are identified in Table 40. The experimental details and the criteria used for each assay are described in the following paragraphs. The molecules described in this example were first tested in the CAT assay and the dot-blot binding-competition assay. In most cases, molecules were only tested in the FXa assay if there was a discrepancy between the results in the CAT assay and the dot-blot binding-competition assay.
(§3) Each molecule was evaluated for binding to tissue factor pathway inhibitor (TFPI) in a binding-competition assay. […] The IC₅₀ of each aptamer was compared to the IC₅₀ of ARC17480 that was evaluated in the same experiment. A mutation was considered tolerated in the binding-competition assay if the IC₅₀ of that molecule was not more than 5-fold greater than that of ARC17480 evaluated in the same experiment. […]

Data set [3] has the same target. Description: competition; dot-blot; FXa assay criterion not met. As to the method: (§4) Each molecule was evaluated for binding to tissue factor pathway inhibitor (TFPI) in a binding-competition assay. For these experiments, 10 nM human TFPI (American Diagnostica, Stamford, Conn., catalog #4500PC) was incubated with trace amounts of radiolabeled ARC17480 and 5000 nM, 1666.67 nM, 555.56 nM, 185.19 nM, 61.73 nM, 20.58 nM, 6.86 nM, 2.29 nM, 0.76 nM or 0.25 nM of unlabeled competitor aptamer. ARC17480 was included as a competitor in every experiment as a control. For each molecule, the percentage of radiolabeled ARC17480 bound at each competitor aptamer concentration was used for analysis. The percentage of radiolabeled ARC17480 bound was plotted as a function of aptamer concentration and fit to the equation y=(max/(1+x/IC₅₀))+int, where y=the percentage of radiolabeled ARC17480 bound, x=the concentration of aptamer, max=the maximum radiolabeled ARC17480 bound, and int=the y-intercept, to generate an IC₅₀ value for binding-competition. The IC₅₀ of each aptamer was compared to the IC₅₀ of ARC17480 that was evaluated in the same experiment. A substitution was considered tolerated in the binding-competition assay if the IC₅₀ of that molecule was not more than 5-fold greater than that of ARC17480 evaluated in the same experiment. Tolerated substitutions are indicated in Table 37 as meeting the assay criteria (“yes”) or not meeting the assay criteria (“no”).

For data set [4] the target is unchanged. Kind of data set: competition; negative control, no competition with ARC17480 in dot blot.
The target is the same in data set [5]. Description: competition; dot-blot; CAT and FXa criteria not met. Here is the method:
as §4

For data set [6] the target is unchanged. Kind of data set: competition; meets binding-competition criterion; CAT no. Here is the method: as §2, §3
The source holds these as a separate data set.

For data set [7] the target is unchanged. Kind of data set: competition; competition with 20 nM ARC19499, plate assay. As to the method: In order to assess the affinity of ARC19498 towards TFPI protein, an ARC19499:TFPI binding competition assay was set up. Recombinant human TFPI protein (0.5 mg/mL) was diluted in DPBS to a final concentration of 15 μg/mL, and 100 μL was added to a 96-well Maxisorb plate and incubated overnight at 4° C. The TFPI solution was then removed and the plate was subsequently washed 3 times with 200 μL wash buffer (DPBS+0.05% Tween 20) at room temperature. The plate was then blocked with 200 μL of 10 mg/mL BSA in DPBS for 30 minutes at room temperature. The BSA blocking solution was then removed and the plate was washed again 3 times with 200 μL wash buffer. ARC19498 was serially diluted and mixed at different concentrations with 20 nM ARC19499 in DPBS in 0.1% BSA. The ARC19498:ARC19499 mixtures were added to the plate and incubated for 3 hours at room temperature. After washing 3 times with 200 μL wash buffer, 100 μL of 0.5 μg/mL rabbit monoclonal anti-PEG antibody (Epitomics) was added to the plate and incubated for 60 minutes at room temperature. The anti-PEG antibody solution was then removed and the plate was washed as described above. […] The assay plate was then read at 450 nm using a Victor³V 1420 multilabel counter (Perkin Elmer). […] The IC₅₀ was calculated based on 4-parameter logistics using Graphpad Prism 4 software.

Data set [8] has the same target. Kind of data set: competition; fails binding-competition criterion; CAT and FXa yes. Here is the method: as §1
The target is the same in data set [9]. Kind of data set: competition; fails binding-competition criterion; FXa yes. Here is the method: as §1

A word on the IC50: it is the concentration at which inhibition is half-maximal. A high value points to weaker potency in that assay.

T1 sequence (P10646 29-304): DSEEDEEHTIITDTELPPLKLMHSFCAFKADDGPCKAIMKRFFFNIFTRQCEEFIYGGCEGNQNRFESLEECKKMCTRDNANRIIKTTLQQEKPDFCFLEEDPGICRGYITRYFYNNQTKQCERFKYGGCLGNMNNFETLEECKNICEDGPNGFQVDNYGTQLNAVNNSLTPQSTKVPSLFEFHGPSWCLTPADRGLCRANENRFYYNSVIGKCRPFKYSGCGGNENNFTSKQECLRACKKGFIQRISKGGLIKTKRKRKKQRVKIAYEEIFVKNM

Turning to GGAAUUACUUGGCUCGUUAGGUGCGUAUAUA (mixed, 2'-OMe A/G/U, 2'-deoxy C, 3' idT) [ARC33122], in data set [1], the binding signal was ≤ 5 fold IC50 of ARC17480.
Take GGAAUAUACUUGGCUCGUUAUGUGCGUAUAUA (mixed, 2'-OMe A/G/U, 2'-deoxy C, 3' idT) [ARC33169]: the binding signal in [2] was > 5 fold IC50 of ARC17480.
In data set [3], GGAAUAUACUUGGCUCGUUAGGUGCGUAUAUA (XNA, 2'-OMe except dC9, dC14, dC25; 2'-OMe C16; 3' idT) [ARC18540] showed a binding signal of at most 5 fold IC50 vs ARC17480.
For the molecule GGAAUAUACUUGGCUGCUUAGGUGCGUAUAUA (mixed, 2'-OMe A/G/U, 2'-deoxy C, 3' idT) [ARC32603], in data set [4], the binding result is recorded as “no binding”.
Consider GGAAUAUACTUGGCUCGUUAGGUGCGUAUAUA (XNA, 2'-OMe except dC9, dC14, dC16, dC25 and dT10; 3' idT) [ARC19456], for which the binding signal in [5] was at most 5 fold IC50 vs ARC17480.
GGAAUAUACUUGGCUCGTUAGGUGCGUAUAUA (XNA, 2'-OMe except dC9, dC14, dC16, dC25 and dT18; 3' idT) [ARC19462]: in data set [5], the binding signal was at most 5 fold IC50 vs ARC17480.
For GGAAUAUACUUGGCUCGUUAGGUGCGUAUAUA (XNA, 2'-OMe except dC9, dC25; 2'-OMe C14 and C16; 3' idT) [ARC18545], in [3], the binding signal was at most 5 fold IC50 vs ARC17480.
Consider GGAAUAUACUUGGCUCGUUAGGUGCGUACAUA (mixed, 2'-OMe A/G/U and mC29, other C 2'-deoxy, 3' idT) [ARC33177], for which, in data set [6], the binding signal was ≤ 5 fold IC50 of ARC17480.
GGAAUAUACUUGGCUCGUUAGGUGCGUAUAUA (mixed, 5'-hexylamine, 2'-OMe A/G/U, 2'-deoxy C, 3' idT) [ARC19498] yielded a half-inhibitory concentration (IC50) in data set [7] of 20 nM.
GGAAUAUACUUGGCUCGUUAGGUGCGUAUAUA (XNA, 2'-OMe except dC9, dC14, dC16; 2'-OMe C25; 3' idT) [ARC18541] displayed a binding signal in [3] of at most 5 fold IC50 vs ARC17480.
In the case of GGAAUUUACUUGGCUCGUUAGGUGCGUAUAUA (mixed, 2'-OMe A/G/U, 2'-deoxy C, 3' idT) [ARC33154], the binding signal in data set [6] is ≤ 5 fold IC50 of ARC17480.
In the case of UAUACUUGGCUCGUUAGGUGCGUAU (mixed, 2'-OMe A/G/U, 2'-deoxy C, 3' idT) [ARC33889], the binding signal in data set [8] was > 5 fold IC50 of ARC17480.
Consider GGAAUAUACUUGGCUCGUAGGUGCGUAUAUA (mixed, 2'-OMe A/G/U, 2'-deoxy C, 3' idT) [ARC33132], for which, in data set [9], the binding signal was > 5 fold IC50 of ARC17480.
For the molecule GGAAUAUACUUGGCUCGUUAGGUGCGUAAUA (mixed, 2'-OMe A/G/U, 2'-deoxy C, 3' idT) [ARC33141], in data set [1], the binding signal is ≤ 5 fold IC50 of ARC17480.
